Where two headings read alike, the source gives them in different places.
Key:
[1] = biological target: T1, extracellular region of human V158 FcγRIIIa with C-terminal 6xHis-tag and GST-tag (human, UniProt P08637 17-208); assay: SPR, fold vs WT alemtuzumab
[2] = biological target: T1, extracellular region of human V158 …; assay: SPR, receptor on chip
[3] = biological target: extracellular region of human F158 FcγRIIIa with C-terminal 6xHis-tag and GST-tag (human, UniProt P08637 17-208); assay: SPR, receptor on chip
[4] = biological target: T1, extracellular region of human V158 …; assay: AlphaScreen competition
[5] = biological target: T1, extracellular region of human V158 …; assay: AlphaScreen competition; remark: listed apart in the source
[6] = biological target: T1, extracellular region of human V158 …; assay: AlphaScreen competition; remark: listed apart in the source
[7] = biological target: T1, extracellular region of human V158 …; assay: AlphaScreen competition, fold vs WT alemtuzumab

Row | Binder | Fold WT [1] [fold] | Kd [2] [nM] | Kd [3] [nM] | other results
1 | E283H alemtuzumab (antibody) chain 1: not shown chain 2: not shown | 2.31 |  |  | 
2 | V264I alemtuzumab (antibody) chain 1: not shown chain 2: not shown |  | 64 |  | 
3 | S239D alemtuzumab (antibody) chain 1: not shown chain 2: not shown |  |  |  | IC50 [4]: 0.8 nM
4 | V264I/I332E alemtuzumab (antibody) chain 1: not shown chain 2: not shown |  | 17 | 52 | IC50 [5]: 0.5 nM
5 | N297D/A330Y/I332E alemtuzumab (antibody) chain 1: QVQLQESGPGLVRPSQTLSLTCTVSGFTFTDFYMNWVRQPPGRGLEWIGFIRDKAKGYTTEYNPSVKGRVTMLVDTSKNQFSLRLSSVTAADTAVYYCAREGHTAAPFDYWGQGSLVTVSSASTKGPSVFPLAPSSKSTSGGTAALGCLVKDYFPEPVTVSWNSGALTSGVHTFPAVLQSSGLYSLSSVVTVPSSSLGTQTYICNVNHKPSNTKVDKKVEPKSCDKTHTCPPCPAPELLGGPSVFLFPPKPKDTLMISRTPEVTCVVVDVSHEDPEVKFNWYVDGVEVHNAKTKPREEQYDSTYRVVSVLTVLHQDWLNGKEYKCKVSNKALPYPEEKTISKAKGQPREPQVYTLPPSRDELTKNQVSLTCLVKGFYPSDIAVEWESNGQPENNYKTTPPVLDSDGSFFLYSKLTVDKSRWQQGNVFSCSVMHEALHNHYTQKSLSLSPGK chain 2: not shown |  |  |  | affinity as a fraction of glycosylated WT alemtuzumab [6]: 0.4 fold
6 | S239D/N297D/I332E alemtuzumab (antibody) chain 1: QVQLQESGPGLVRPSQTLSLTCTVSGFTFTDFYMNWVRQPPGRGLEWIGFIRDKAKGYTTEYNPSVKGRVTMLVDTSKNQFSLRLSSVTAADTAVYYCAREGHTAAPFDYWGQGSLVTVSSASTKGPSVFPLAPSSKSTSGGTAALGCLVKDYFPEPVTVSWNSGALTSGVHTFPAVLQSSGLYSLSSVVTVPSSSLGTQTYICNVNHKPSNTKVDKKVEPKSCDKTHTCPPCPAPELLGGPDVFLFPPKPKDTLMISRTPEVTCVVVDVSHEDPEVKFNWYVDGVEVHNAKTKPREEQYDSTYRVVSVLTVLHQDWLNGKEYKCKVSNKALPAPEEKTISKAKGQPREPQVYTLPPSRDELTKNQVSLTCLVKGFYPSDIAVEWESNGQPENNYKTTPPVLDSDGSFFLYSKLTVDKSRWQQGNVFSCSVMHEALHNHYTQKSLSLSPGK chain 2: not shown |  |  |  | affinity as a fraction of glycosylated WT alemtuzumab [6]: 0.8 fold
7 | E272R alemtuzumab (antibody) chain 1: not shown chain 2: not shown | 1.38 |  |  | 
8 | T260H alemtuzumab (antibody) chain 1: not shown chain 2: not shown | 1.86 |  |  | Fold WT [7]: 1 fold

More lines, main results first:

Row | Fold WT [1] [fold] | Kd [2] [nM] | Kd [3] [nM] | Binder | other results
9 |  | 31 | 72 | I332E alemtuzumab (antibody) chain 1: not shown chain 2: not shown | 
10 | 1.51 |  |  | V284E alemtuzumab (antibody) chain 1: not shown chain 2: not shown | 
11 |  | 68 | 730 | WT alemtuzumab (antibody) chain 1: not shown chain 2: not shown | 
12 |  | 39 | 156 | S298A/E333A/K334A alemtuzumab (antibody) chain 1: QVQLQESGPGLVRPSQTLSLTCTVSGFTFTDFYMNWVRQPPGRGLEWIGFIRDKAKGYTTEYNPSVKGRVTMLVDTSKNQFSLRLSSVTAADTAVYYCAREGHTAAPFDYWGQGSLVTVSSASTKGPSVFPLAPSSKSTSGGTAALGCLVKDYFPEPVTVSWNSGALTSGVHTFPAVLQSSGLYSLSSVVTVPSSSLGTQTYICNVNHKPSNTKVDKKVEPKSCDKTHTCPPCPAPELLGGPSVFLFPPKPKDTLMISRTPEVTCVVVDVSHEDPEVKFNWYVDGVEVHNAKTKPREEQYNATYRVVSVLTVLHQDWLNGKEYKCKVSNKALPAPIAATISKAKGQPREPQVYTLPPSRDELTKNQVSLTCLVKGFYPSDIAVEWESNGQPENNYKTTPPVLDSDGSFFLYSKLTVDKSRWQQGNVFSCSVMHEALHNHYTQKSLSLSPGK chain 2: not shown | 
13 |  | 52 | 285 | S298A alemtuzumab (antibody) chain 1: not shown chain 2: not shown | 
14 | 12.8 |  |  | S304T alemtuzumab (antibody) chain 1: not shown chain 2: not shown | 
